Data: PMC6687101

Target: HBV envelope proteins (HBs; L, M and S forms) on HBV virions and subviral particles (hepatitis B virus) (UniProt P03138)
Experiment: co-IP; 50 µg apoE mAb23 or anti-HBs coupled to protein G agarose, mixed with 10 µL CsCl-purified HBV (fraction 7) at 4 °C overnight; HBcAg detected by WB and HBV DNA by qPCR (input = 100%); normal mouse IgG as control

## HBV core protein (from UniProt P03146 1-183) (natural protein)
  percent of HBV precipitated through HBs (HBV DNA by qPCR): > 95%
